This data set deals with the molecule itself.

B1: CBF3 p110 (p110^NDC10) (natural protein)
chain: MRSSILFLLKLMKIMDVQQQQEAMSSEDRFQELVDSLKPRTAHQYKTYYTKYIQWCQLNQIIPTPEDNSVNSVPYKDLPISAELIHWFLLDTLITDDKPGEKREETEDLDEEEENSFKIATLKKIIGSLNFLSKLCKVHENPNANIDTKYLESVTKLHTHWIDSQKAITTNETNNTNTQVLCPPLLKVSLNLWNPETNHLSEKFFKTCSEKLRFLVDFQLRSYLNLSFEERSKIRFGSLKLGKRDRDAIIYHKVTHSAEKKDTPGHHQLLALLPQDCPFICPQTTLAAYLYLRFYGIPSVSKGDGFPNLNADENGSLLQDIPILRGKSLTTYPREETFSNYYTTVFRYCHLPYKRREYFNKCNLVYPTWDEDTFRTFFNEENHGNWLEQPEAFAFPDKIPFDFKKIMNFKSPYTSYSTNAKKDPFPPPKDLLVQIFPEIDEYKRHDYEGLSQNSRDFLDLMEVLRERFLSNLPWIYKFFPNHDIFQDPIFGNSDFQSYFNDKTIHSKGSPILSFDILPGFNKIYKNKTNFYSLLIERPSQLTFASSHNPDTHPTQKQESEGPLQMSQLDTTQLNELLKQQSFEYVQFQTLSNFQILLSVFNKIFEKLEMKKSSRGYILHQLNLFKITLDERIKKSKIDDADKFIRDNQPIKKEENIVNEDGPNTSRRTKRPKQIRLLSIADSSDESSTEDSNVFKKDGESIEDGAYGENEDENDSEMQEQLKSMINELINSKISTFLRDQMDQFELKINALLDKILEEKVTRIIEQKLGSHTGKFSTLKRPQLYMTEEHNVGFDMEVPKKLRTSGKYAETVKDNDDHQAMSTTASPSPEQDQEAKSYTDEQEFMLDKSIDSIEGIILEWFTPNAKYANQCVHSMNKSGNKSWRANCEALYKERKSIVEFYIYLVNHESLDRYKAVDICEKLRDQNEGSFSRLAKFLRKWRHDHQNSFDGLLVYLSN
As a reminder, the stoichiometry N is a count of units in the complex or per binding partner. Consider B1, for which the “stoichiometry N” value came out at 2.

(Values after article PMC2132615 (The Journal of Cell Biology, 1997).)
